Data reported in the supplement of paper PMC10126150.
± gives the standard deviation of the averaged measurements.

system: ATP; assay: switch fluorescence ratio, 500 uM ATP over buffer (Cy3 cluster intensity, sum of 5 cycles each) (fold (ratio)); higher = stronger signal-on switching upon ATP binding; sequences stand for … in TCGTCGGCAGCGTCAGATGTGTATAAGAGACAGTTTTTTTTTTTTTTTTTTTTTTTTT…TC; conditions: aptamer strand: ATP DNA aptamer (quencher-CACCTGGGGGAGTATTGCGGAGGAAGG + anchor), 100 nM annealed; ATP concentration: 500 uM
Method in brief: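 The fluorescence ratio divides summed target-cycle Cy3 intensity by summed buffer-cycle Cy3 intensity for each cluster and is averaged per switch-domain sequence. Cy3-labelled switching-strand clusters on a modified Illumina MiSeq flow-cell were annealed to 100 nM quencher-labelled ATP aptamer, then imaged in selection buffer and again after 15 min with 500 uM ATP at 22 °C. Five such cycles were run, with NaOH stripping and re-annealing between them, and clusters outside 100-1000 RFU were excluded.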
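Further: ATP exposure 15 min at 22 °C before imaging.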

Sequence	switch fluorescence ratio
TGGTGATAGT	0.965 ± 0.035
TGGTGATGGG	0.9922 ± 0.0093
TGGTGCAGGA	0.9776 ± 0.0092
TGGTGCAGGG	0.984 ± 0.015
TGGTGCATGG	1.03 ± 0.024
TGGTGCCGGT	1.01 ± 0.041
TGGTGCGCCC	1.033 ± 0.0058
TGGTGCTCAT	0.994 ± 0.024
TGGTGGAATT	1.02 ± 0.034
TGGTGGACGT	0.997 ± 0.039
TGGTGGCCGG	1.02 ± 0.019
TGGTGGGATC	1.03 ± 0.025
TGGTGGGGCA	0.977 ± 0.064
TGGTGGGGGT	0.999 ± 0.028
TGGTGGGTAT	0.999 ± 0.024
TGGTGGGTTT	1 ± 0.029
TGGTGGTATG	1.01 ± 0.071
TGGTGTCACG	0.983 ± 0.017
TGGTGTCGT	1.01 ± 0.011
TGGTGTTGTC	1.03 ± 0.033
TGGTTAAAAT	1 ± 0.025
TGGTTAAATT	0.997 ± 0.033
TGGTTAACTG	1.13 ± 0.16
TGGTTACGCT	1.028 ± 0.0084
TGGTTACTCG	0.984 ± 0.034

Sequence	switch fluorescence ratio
TGGTTAGGG	0.988 ± 0.019
TGGTTATAAT	0.992 ± 0.024
TGGTTATTAC	1.037 ± 0.0094
TGGTTATTAT	0.991 ± 0.015
TGGTTCGAT	0.978 ± 0.015
TGGTTCGGGG	0.96 ± 0.015
TGGTTCGGTG	0.977 ± 0.016
TGGTTGAAAA	0.875 ± 0.033
TGGTTGAACC	1.03 ± 0.024
TGGTTGAGAC	0.988 ± 0.016
TGGTTGATGA	0.98 ± 0.064
TGGTTGCGTG	1 ± 0.015
TGGTTGGGAG	1.01 ± 0.035
TGGTTGGGCT	1.01 ± 0.026
TGGTTGGGGA	0.994 ± 0.036
TGGTTGGTC	0.965 ± 0.039
TGGTTGGTGC	1.16 ± 0.17
TGGTTGTTAT	1.008 ± 0.0058
TGGTTGTTTA	0.993 ± 0.0045
TGGTTTAATA	0.9853 ± 0.0079
TGGTTTACCA	0.9936 ± 0.0041
TGGTTTATTC	0.986 ± 0.051
TGGTTTCAGG	1.01 ± 0.025
TGGTTTGCCG	1.01 ± 0.049
TGGTTTGGTA	0.961 ± 0.011

Sequence	switch fluorescence ratio
TGGTTTTGCC	1.005 ± 0.0082
TGGTTTTGGG	0.992 ± 0.021
TGGTTTTTAC	1.01 ± 0.038
TGGTTTTTGG	0.989 ± 0.018
TGGTTTTTTC	1.01 ± 0.033
TGGTTTTTTT	0.992 ± 0.018
TGTAAAAACG	1.01 ± 0.056
TGTAAAAAGC	1.018 ± 0.0059
TGTAAAAGGA	1.01 ± 0.021
TGTAAACCGG	1.07 ± 0.042
TGTAAATACA	1.15 ± 0.18
TGTAAGCCGG	1.05 ± 0.07
TGTAAGGATT	1.009 ± 0.0083
TGTAAGGGCG	1.02 ± 0.016
TGTAATGGGT	1 ± 0.029
TGTACGACGG	1.02 ± 0.023
TGTACTATGG	1.01 ± 0.04
TGTAGAGGGC	1.04 ± 0.026
TGTAGAGGGT	0.976 ± 0.029
TGTAGGAAGT	0.992 ± 0.017
TGTAGGACGG	1.09 ± 0.094
TGTAGGGGTG	0.987 ± 0.016
TGTAGGTGGT	0.978 ± 0.016
TGTAGTAACG	0.982 ± 0.012
TGTAGTAGCA	1.04 ± 0.034

Sequence	switch fluorescence ratio
TGTATATTGG	0.995 ± 0.015
TGTATCTCTG	1.02 ± 0.02
TGTATGGCGC	1.01 ± 0.058
TGTATGGGGT	0.973 ± 0.018
TGTATGTTTT	0.962 ± 0.046
TGTATTATGT	1.002 ± 0.004
TGTATTCGGG	0.978 ± 0.01
TGTATTTAC	1.11 ± 0.048
TGTCAAAAAT	0.982 ± 0.043
TGTCAGACGT	1 ± 0.011
TGTCAGGGGT	1.03 ± 0.043
TGTCCCACAA	0.999 ± 0.035
TGTCCGCCTG	1.07 ± 0.019
TGTCGGAAAG	0.985 ± 0.026
TGTCGGCTGC	1.09 ± 0.015
TGTCGGGTTA	1.01 ± 0.027
TGTCGGTGGG	0.992 ± 0.016
TGTCGGTGTC	1.01 ± 0.028
TGTCGTCTTC	0.99 ± 0.016
TGTCGTGTAG	1.01 ± 0.0094
TGTCTCAGAT	0.97948 ± 0.00033
TGTCTTTTTA	0.995 ± 0.028
TGTGAAAGGC	1.04 ± 0.03
TGTGAAGTTG	1.008 ± 0.0027
TGTGAATGGG	1.02 ± 0.017
